Patent publication US8846003
No end group written: not given here.

Target: collagen
Assay: SPR, Biacore 2000; 1500 RU collagen amine-coupled to CM-3 chip, SILY injected at 100 µM to 1.5 µM; from on-off binding kinetics

Kd: 1.2 µM
Binder: RRANAALKAGELYKSILYGC-NH2 [peptide …]
